The results in this text go back to patent US20030082668.

The subject of one data set is T1, Boc-Val-Leu-(Ac)Lys-MCA.
T1 sequence: VLK

The next data set relates to T2, Boc-Val-Leu-Lys-MCA.
T2 sequence: VLK

The subject of data set [1] is T3, Nma-VGAK(Ac)RHSK(Dnp)-NH2.
T3 sequence: VGAKRHSK

Data set [2] concerns the target T4, Nma-VGAK(Ac)RHSK(Dnp)-NH2.
T4 chain: VGAKRHSK

As for plasmin, the figures for the “peptide cleavage activity (fluorescence intensity of released AMC)” value in the data set with Boc-Val-Leu-(Ac)Lys-MCA and in the data set on Boc-Val-Leu-Lys-MCA were “did not cleave Boc-Val-Leu-(Ac)Lys-MCA” and “digested Boc-Val-Leu-Lys-MCA”, respectively.

For the molecule lysylendopeptidase, the “peptide cleavage (fluorescence intensity)” value in data set [1] was “In the absence of recombinant SIRT1, the fluorescence intensity did not increase, namely, the fluorescent substrate was not cleaved off by LEP at all”. The “peptide cleavage activity (fluorescence intensity of released AMC)” value in the data set with Boc-Val-Leu-(Ac)Lys-MCA is given as “did not cleave Boc-Val-Leu-(Ac)Lys-MCA”; in the data set with Boc-Val-Leu-Lys-MCA it was “digested Boc-Val-Leu-Lys-MCA”.

B1: recombinant SIRT1 (GST fused to the amino terminal end) (protein)
chain: MADEAALALQPGGSPSAAGADREAASSPAGEPLRKRPRRDGPGLERSPGEPGGAAPEREVPAAARGCPGAAAAALWREAEAEAAAAGGEQEAQATAAAGEGDNGPGLQGPSREPPLADNLYDEDDDDEGEEEEEAAAAAIGYRDNLLFGDEIITNGFHSCESDEEDRASHASSSDWTPRPRIGPYTFVQQHLMIGTDPRTILKDLLPETIPPPELDDMTLWQIVINILSEPPKRKKRKDINTIEDAVKLLQECKKIIVLTGAGVSVSCGIPDFRSRDGIYARLAVDFPDLPDPQAMFDIEYFRKDPRPFFKFAKEIYPGQFQPSLCHKFIALSDKEGKLLRNYTQNIDTLEQVAGIQRIIQCHGSFATASCLICKYKVDCEAVRGDIFNQVVPRCPRCPADEPLAIMKPEIVFFGENLPEQFHRAMKYDKDEVDLLIVIGSSLKVRPVALIPSSIPHEVPQILINREPLPHLHFDVELLGDCDVIINELCHRLGGEYAKLCCNPVKLSEITEKPPRTQKELAYLSELPPTPLHVSEDSSSPERTSPPDSSVIVTLLDQAAKSNDDLDVSESKGCMEEKPQEVQTSRNVESIAEQMENPDLKNVGSSTGEKNERTSVAGTVRKCWPNRVAKEQISRRLDGNQYLFLPPNRYIFHGAEVYSDSEDDVLSSSSCGSNSDSGTCQSPSLEEPMEDESEIEEFYNGLEDEPDVPERAGGAGFGTDGDDQEAINEAISVKQEVTDMNYPSNKS
On to B1, for which, in data set [2], the “NAD-dependent deacetylase activity (fluorescence intensity, lysylendopeptidase-coupled assay)” value is “the fluorescence intensity increased in an NAD concentration-dependent fashion. In the absence of NAD, regardless of the presence of the recombinant SIRT1, the fluorescence intensity did not increase” and the “deacetylase activity (fluorescence intensity, lysylendopeptidase-coupled assay)” value is reported as “the fluorescence intensity increased was proportional to the recombinant SIRT1 concentration”.
